Measurements from article doi:10.1101/2023.01.13.523903 (bioRxiv, 2023).

B1: TKS4 peptide 189 (peptide)
peptide: QRPVVPPRRPPPPKK
B2: TKS4 peptide 188 (peptide)
peptide: EAPQQRPVVPPRRPP

Biological target: Myc-DDK tagged human CD2-associated protein (human, UniProt Q9Y5K6 1-639)
Assay: peptide or protein array

Myc-DDK tagged human CD2-associated protein, sequence (Q9Y5K6 whole entry): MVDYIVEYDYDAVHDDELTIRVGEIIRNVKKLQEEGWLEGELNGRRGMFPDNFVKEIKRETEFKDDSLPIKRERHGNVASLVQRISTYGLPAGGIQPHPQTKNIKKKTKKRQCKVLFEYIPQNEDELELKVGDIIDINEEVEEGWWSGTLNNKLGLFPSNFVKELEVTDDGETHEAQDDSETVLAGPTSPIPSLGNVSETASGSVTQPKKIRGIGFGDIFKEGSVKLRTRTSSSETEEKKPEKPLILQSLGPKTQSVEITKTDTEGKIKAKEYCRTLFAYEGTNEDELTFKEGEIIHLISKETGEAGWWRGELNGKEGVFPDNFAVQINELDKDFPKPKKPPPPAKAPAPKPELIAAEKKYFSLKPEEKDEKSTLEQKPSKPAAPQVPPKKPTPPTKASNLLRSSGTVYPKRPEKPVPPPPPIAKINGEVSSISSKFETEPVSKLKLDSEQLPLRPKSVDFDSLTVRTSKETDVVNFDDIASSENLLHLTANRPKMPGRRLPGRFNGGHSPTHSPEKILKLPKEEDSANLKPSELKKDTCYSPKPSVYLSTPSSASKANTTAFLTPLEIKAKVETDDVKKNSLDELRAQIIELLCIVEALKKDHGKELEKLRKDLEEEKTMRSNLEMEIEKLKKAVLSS

| Binder | binding result |
| --- | --- |
| B1 | binds |
| B2 | binds |
